Results taken from IntAct's records for PubMed 19379692.

B1: SET domain-containing protein 3 (Saccharomyces cerevisiae), P36124 (parent)
chain: MSVPNSKEQSLLDDASTLLLFSKGKKRAEEASKIGSKTDTIEHDESHEREKKGAIEMAAAALATASTVSLPLKKATEQSAAEAATSTAAKEETENQPQKQPQWPVPDSYIVDPDAGIITCICDLNDDDGFTIQCDHCNRWQHAICYGIKDIGMAPDDYLCNSCDPREVDINLARKIQQERINVKTVEPSSSNNSASNKNNGRDRASSTTISDVGDSFSTDQDNTNHRDKRRKRNPSNNSIDSKNESASVNSSDGLTSMPKKKEHFLSAKDAYGAIYLPLKDNVFKSDLIEPFLNKHMDDNWVIQYPHKTFKSVSIEVKPYADIAYSRTYPGFTKLGVYLKKDCIKGDFIQEILGELDFYKNYLTDPRNHYRIWGTAKRRVIFHSHWPIYIDARLSGNSTRYLRRSCQPNVELVTIKLQDTDNRNDKSSGRKSSRIKFVLRALRDISEDEELYIKWQWDSKHPILKLIKGMTIDSLDDLERYGLINSVETILSNGECGCGNNSKDCYLLKVKRYAQSLYKSVKSRGKMNNRYKLNEILNQYNCKKRREPPILHRLEEKAQNTIERAPILLNNFYRQKFLNRNNGPKIPQKNTIDSTNNPDDIAKPFKFALFAQHSSNISVPKKNETSEKPLIITKSTDYDESHITNIEELPIPVLLPINKTSRQTANDVEESQSKNEHKLSRTPSLSNFNKELSKEAQHSQAKTKEIMTEASVNSRRESTPESIMHLSDFSSSQLHSKKKLSFADYRKKLLK

Variants of: B1
Details: with h4_yeast HHF1, P02309

effect of a mutation on the interaction	Variant
decreasing interaction	W140A
